In data set [1] the target is T1, ThyX (Mycobacterium tuberculosis, UniProt P9WG57).
T1 construct: C-terminal His-Tag
The experiment in a line: biochemical.

Data set [2] has as its target T2, ThyA (Mycobacterium tuberculosis, UniProt P9WFR9).
T2 construct: N-terminal His-Tag
The experiment in a line: biochemical.

Data set [3] relates to Nc1nc2c(c(=O)[nH]1)N1CN(c3ccc(C(=O)N[C@@H](CCC(=O)O)C(=O)O)cc3)CC1CN2. The experiment in a line: purified protein.
Data set [4] deals with O=c1ccn([C@H]2C[C@H](O)[C@@H](COP(=O)(O)O)O2)c(=O)[nH]1. The experiment in a line: purified protein.
In data set [5] the test system is NC(=O)C1=CN([C@@H]2O[C@H](COP(=O)(O)OP(=O)(O)OC[C@H]3O[C@@H](n4cnc5c(N)ncnc54)[C@H](OP(=O)(O)O)[C@@H]3O)[C@@H](O)[C@H]2O)C=CC1. The experiment in a line: purified protein. As to conditions: FAD.
Data set [6] concerns the molecule itself. The experiment in a line: SEC. (Size exclusion chromatography separates by hydrodynamic size, large species first.)

As usually defined, the Ki is a measure of affinity in units of concentration, obtained from inhibition or displacement. Low readings indicate higher affinity, high ones lower affinity. One may read the Km as the concentration of substrate that gives half-maximal velocity. In general, stoichiometry N refers to a count of units in the complex or per binding partner.

Where two headings read alike, the source gives them in different places.

T2 sequence (P9WFR9 2-266): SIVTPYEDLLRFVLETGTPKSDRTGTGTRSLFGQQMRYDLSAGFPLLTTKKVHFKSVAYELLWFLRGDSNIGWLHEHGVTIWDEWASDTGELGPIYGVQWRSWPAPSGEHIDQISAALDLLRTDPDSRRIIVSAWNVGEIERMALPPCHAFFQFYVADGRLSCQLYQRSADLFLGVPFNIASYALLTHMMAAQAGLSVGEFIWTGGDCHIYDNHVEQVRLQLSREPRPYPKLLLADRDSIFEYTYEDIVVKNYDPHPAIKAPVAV

As to `O=c1[nH]c(=O)n([C@H]2C[C@H](O)[C@@H](COP(=O)(O)O)O2)cc1F` [FdUMP, 5-Fluoro-2′-deoxyuridine 5′-monophosphate], the inhibitory constant (Ki) amounted to 100 ± 10 nM in data set [1] and 2 ± 0.2 nM in data set [2].
In the case of ThyA (Mycobacterium tuberculosis H37Rv), the Michaelis constant (Km) in data set [3] amounted to 70 ± 30 µM; in data set [4] (mTHF), 4 ± 0.7 µM.
As to ThyX (Mycobacterium tuberculosis H37Rv), the results for the Michaelis-Menten constant (Km) in data set [3] (FAD), in data set [4] (FAD) and in data set [5] were 4.0 ± 1 µM, 3 ± 0.7 µM and 47 ± 10 µM, respectively.

B1: Histidine-tagged M. tuberculosis ThyX (flavin-dependent thymidylate synthase) (enzyme)
chain: MAETAPLRVQLIAKTDFLAPPDVPWTTDADGGPALVEFAGRACYQSWSKPNPKTATNAGYLRHIIDVGHFSVLEHASVSFYITGISRSCTHELIRHRHFSYSQLSQRYVPEKDSRVVVPPGMEDDADLRHILTEAADAARATYSELLAKLEAKFADQPNAILRRKQARQAARAVLPNATETRIVVTGNYRAWRHFIAMRASEHADVEIRRLAIECLRQLAAVAPAVFADFEVTTLADGTEVATSPLATEA
notes: also called FDTS
On to B1, for which, in data set [6], the “stoichiometry N” value came to 4.

The values are drawn from article PMC2386288, “Kinetics and Ligand-Binding Preferences of Mycobacterium tuberculosis Thymidylate Synthases, ThyA and ThyX” (PLoS ONE, 2008).
